Experimental data reported in patent US7083511B1, “Methods” (The University of Dundee, priority 1998, dated 2006).

Columns and labels:
SGK [1] = assay: Activation of GST-SGK in transfected 293 cells (Example 1); type: cell-based, human; conditions: PMA 400 ng/ml 30 min, EGF 100 ng/ml 30 min
SGK [2] = target: T1, SGK (Homo sapiens, UniProt O00141, S422D); assay: Activity of SGK towards synthetic peptides related to Crosstide; type: biochemical; conditions: GST-ΔN-SGK from 293 cells activated by PDK1; each peptide 30 μM
T1 construct: made in house; host or cells: human embryonic kidney 293 cells (pEBG-2T vector)
T1 sequence (O00141 61-431 S422D): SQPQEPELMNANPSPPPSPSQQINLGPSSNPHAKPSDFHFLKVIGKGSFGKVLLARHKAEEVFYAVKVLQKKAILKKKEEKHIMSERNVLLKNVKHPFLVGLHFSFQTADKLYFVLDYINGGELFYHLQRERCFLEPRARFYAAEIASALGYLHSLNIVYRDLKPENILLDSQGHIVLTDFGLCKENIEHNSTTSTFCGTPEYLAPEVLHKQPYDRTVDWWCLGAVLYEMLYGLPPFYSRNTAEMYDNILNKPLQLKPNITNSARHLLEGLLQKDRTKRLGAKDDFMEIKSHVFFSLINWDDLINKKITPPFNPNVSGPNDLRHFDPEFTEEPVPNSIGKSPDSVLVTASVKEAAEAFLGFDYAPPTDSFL
Experimental: Phosphorylation and assay of SGK. Phosphorylation was carried out at 30° C. in 50 μl incubations containing 50 mM Tris/HCl pH 7.5, 0.1 mM EGTA, 0.1% (v/v) 2-mercaptoethanol, 2.5 μM PKI, 1 μM microcystin-LR, 10 mM magnesium chloride and 100 μM ATP. Where indicated lipid vesicles containing phosphatidylcholine (100 μM), phosphatidyl serine (100 μM) and PtdIns(3,4,5)P3 (1 μM) were also included. SGK activity was assayed exactly as described for PKB [6] using the peptide […] (SEQ. ID. NO:30) (“Crosstide”) at 30 μM as substrate. One unit of activity (U) was that amount which catalysed the phosphorylation of […] of Crosstide in one min.

PKBα = target: T2, PKBα (Homo sapiens, UniProt P31749); assay: Activity of PKBα towards synthetic peptides related to Crosstide; type: biochemical; conditions: GST-PKBα from 293 cells activated by PDK1; each peptide 30 μM
T2 construct: pEBG-PKBa expressing full length PKBα; made in house; host or cells: 293 cells (pEBG-PKBα)

SGK1 = target: T3, SGK1 (Homo sapiens, UniProt O00141, S422D); assay: Activity of SGK1 toward synthetic peptides related to Crosstide; type: biochemical; conditions: each peptide 30 μM, average of two experiments
T3 construct: made in house; host or cells: human embryonic kidney 293 cells (pEBG-2T vector)
T3 sequence (O00141 61-431 S422D): T1 sequence (O00141 61-431 S422D)

SGK2 = target: T4, SGK2 (Homo sapiens, UniProt Q9HBY8, S356D); assay: Activity of SGK2 toward synthetic peptides related to Crosstide; type: biochemical; conditions: each peptide 30 μM, average of two experiments
T4 construct: pEBG-SGK2α expressing full length of SGK2α; made in house; host or cells: 293 cells (pEBG-2T-2 vector)
T4 sequence (Q9HBY8 1-367 S356D): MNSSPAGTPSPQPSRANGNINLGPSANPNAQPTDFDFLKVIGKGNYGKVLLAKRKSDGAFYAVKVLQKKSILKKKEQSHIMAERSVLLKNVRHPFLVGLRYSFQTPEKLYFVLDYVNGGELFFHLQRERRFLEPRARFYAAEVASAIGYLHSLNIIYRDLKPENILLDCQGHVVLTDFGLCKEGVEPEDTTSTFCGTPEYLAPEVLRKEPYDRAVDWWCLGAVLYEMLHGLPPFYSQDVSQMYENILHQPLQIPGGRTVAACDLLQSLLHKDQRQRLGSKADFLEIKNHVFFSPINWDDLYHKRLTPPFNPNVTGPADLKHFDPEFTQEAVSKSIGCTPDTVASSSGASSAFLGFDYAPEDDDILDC
Experimental: Each GST-SGK isoform (0.4 μg) was incubated for 20 min at 30° C. with protein phosphatase 2A (PP2A, 30 mU/ml) in a 10 μl incubation containing 20 mM Tris/HCl, pH 7.5, 0.1% (v/v) 2-mercaptoethanol, 0.1 mM EGTA and 1 mg/ml bovine serum albumin. After addition of microcystin-LR to 1 μM to inactivate PP2A, SGK (0.4 μg) was phosphorylated for 30 min at 30° C. in a mixture (20 μl) containing 50 mM Tris/HCl, pH 7.5, 10 mM MgCl2, 0.1% (v/v) 2-mercaptoethanol, 0.1 mM EGTA, GST-PDK1 (0.03–300 ng) diluted in Buffer C and 100 μM unlabelled ATP. […] ID. NO:30) and 4.2 μM of residues 5–24 of the specific protein inhibitor of adenosine 3′5′ cyclic monophosphate-dependent protein kinase. After 10 min at 30° C., the reactions were terminated by spotting aliquots on to P81 phosphocellulose paper, followed by immediate immersion in 75 mM phosphoric acid. The papers were washed, dried and analysed. One unit (U) of SGK was that amount which phosphorylated 1 nmole of Crosstide in one min.

SGK3 = target: T5, SGK3 (Homo sapiens, UniProt Q96BR1, S486D); assay: Activity of SGK3 toward synthetic peptides related to Crosstide; type: biochemical; conditions: each peptide 30 μM, average of two experiments
T5 construct: SGK3 lacking the N-terminal 52 residues (ΔN-SGK3[53–429]); made in house; host or cells: 293 cells (pEBG-2T-2 vector)
T5 sequence (Q96BR1 120-496 S486D): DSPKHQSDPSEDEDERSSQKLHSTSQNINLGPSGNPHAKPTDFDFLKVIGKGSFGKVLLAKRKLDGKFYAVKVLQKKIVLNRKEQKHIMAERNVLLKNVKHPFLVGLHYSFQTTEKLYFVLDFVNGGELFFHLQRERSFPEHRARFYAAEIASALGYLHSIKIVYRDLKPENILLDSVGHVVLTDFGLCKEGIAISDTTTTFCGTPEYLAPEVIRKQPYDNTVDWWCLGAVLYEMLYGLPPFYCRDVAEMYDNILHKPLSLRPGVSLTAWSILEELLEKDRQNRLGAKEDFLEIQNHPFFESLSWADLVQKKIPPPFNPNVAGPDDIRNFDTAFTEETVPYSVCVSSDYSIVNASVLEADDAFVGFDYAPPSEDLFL

[3] = GST-ΔN-SGK1[S422D] from 293 cells
[4] = GST-SGK2α[S356D] from 293 cells
[5] = GST-ΔN-SGK3[S419D] from 293 cells

T2 sequence (P31749 whole entry, species assumed): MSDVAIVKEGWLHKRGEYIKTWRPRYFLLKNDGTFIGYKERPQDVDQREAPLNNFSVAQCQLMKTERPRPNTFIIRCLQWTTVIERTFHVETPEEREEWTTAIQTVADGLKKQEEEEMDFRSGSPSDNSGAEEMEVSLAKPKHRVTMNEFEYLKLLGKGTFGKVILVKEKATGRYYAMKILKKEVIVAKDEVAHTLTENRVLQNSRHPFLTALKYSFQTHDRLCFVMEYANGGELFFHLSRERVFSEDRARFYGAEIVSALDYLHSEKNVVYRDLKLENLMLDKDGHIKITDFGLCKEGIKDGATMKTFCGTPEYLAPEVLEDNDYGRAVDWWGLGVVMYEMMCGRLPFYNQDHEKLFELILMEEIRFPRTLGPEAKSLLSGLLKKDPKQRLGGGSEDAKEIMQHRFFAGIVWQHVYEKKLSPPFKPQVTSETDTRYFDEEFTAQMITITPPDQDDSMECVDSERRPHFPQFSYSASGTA

| Molecule | Activation of SGK by the stimulus (in words) (SGK [1]) | SGK activity relative to peptide 1 (Crosstide) (SGK [2]) | PKBα activity relative to peptide 1 (Crosstide) (PKBα) | SGK1 activity % relative to peptide 1 (Crosstide) (SGK1; [3]) | SGK2 activity % relative to peptide 1 (Crosstide) (SGK2; [4]) | SGK3 activity % relative to peptide 1 (Crosstide) (SGK3; [5]) | SGK1 activity % relative to peptide 1 (Crosstide) (SGK1; […]) | SGK2 activity % relative to peptide 1 (Crosstide) (SGK2; […]) | SGK3 activity % relative to peptide 1 (Crosstide) (SGK3; […]) |
| --- | --- | --- | --- | --- | --- | --- | --- | --- | --- |
| CCCCCCCCCCCCCC(=O)O[C@@H]1[C@@H](C)[C@@]2(O)[C@@H](C=C(CO)C[C@]3(O)C(=O)C(C)=C[C@@H]23)[C@@H]2C(C)(C)[C@]12OC(C)=O [Phorbol myristate acetate, reference compound] | did not induce any activation |  |  |  |  |  |  |  |  |
| EGF: activator of the classical MAP kinase cascade in 293 cells | did not induce any activation |  |  |  |  |  |  |  |  |
| GRPRTSSFAEG [Peptide 1, ID; NO: 30, reference compound] |  | 100% | 100% | 100% | 100% | 100% |  |  |  |
| KPRTSSF [Peptide 8, ID; NO: 37] |  | 2% | 6% | <1% | <1% | <1% |  |  |  |
| PRTSSF [Peptide 4, ID; NO: 33] |  | <1% | <1% | <1% | <1% | <1% |  |  |  |
| RPKTSSF [Peptide 9, ID; NO: 38] |  | 49% | 26% | 11% | 8% | 48% |  |  |  |
| RPRAATF [Peptide 7] |  | 73% | 55% |  |  |  | 44% | 61% | 56% |
| RPRTSAF [Peptide 3, ID; NO: 32] |  | <1% | <1% | <1% | <1% | <1% |  |  |  |
| RPRTSS [Peptide 5, ID; NO: 31] |  | 10% | <1% | 5.1% | 8% | 18% |  |  |  |
| RPRTSSA [Peptide 13, ID; NO: 42] |  | 107% | 26% | 49% | 82% | 123% |  |  |  |
| RPRTSSE [Peptide 15, ID; NO: 44] |  | 84% | 21% | 28% | 34% | 67% |  |  |  |
| RPRTSSF [Peptide 2, ID; NO: 39] |  | 154% | 160% | 135% | 182% | 137% |  |  |  |
| RPRTSSK [Peptide 14, ID; NO: 43] |  | 146% | 48% | 84% | 128% | 200% |  |  |  |
| RPRTSSL [Peptide 11, ID; NO: 40] |  | 135% | 69% | 108% | 185% | 113% |  |  |  |
| RPRTSSV [Peptide 12, ID; NO: 41] |  | 131% | 67% | 90% | 124% | 139% |  |  |  |
| RPRTSTF [Peptide 6, ID; NO: 35] |  | 156% | 208% | 129% | 192% | 156% |  |  |  |
